The test deals with Prp43-Strep (S. cerevisiae, UniProt P53131 1-767). Briefly: titration of the ATPase activity of Prp43.
Sequence of Prp43-Strep (P53131 whole entry): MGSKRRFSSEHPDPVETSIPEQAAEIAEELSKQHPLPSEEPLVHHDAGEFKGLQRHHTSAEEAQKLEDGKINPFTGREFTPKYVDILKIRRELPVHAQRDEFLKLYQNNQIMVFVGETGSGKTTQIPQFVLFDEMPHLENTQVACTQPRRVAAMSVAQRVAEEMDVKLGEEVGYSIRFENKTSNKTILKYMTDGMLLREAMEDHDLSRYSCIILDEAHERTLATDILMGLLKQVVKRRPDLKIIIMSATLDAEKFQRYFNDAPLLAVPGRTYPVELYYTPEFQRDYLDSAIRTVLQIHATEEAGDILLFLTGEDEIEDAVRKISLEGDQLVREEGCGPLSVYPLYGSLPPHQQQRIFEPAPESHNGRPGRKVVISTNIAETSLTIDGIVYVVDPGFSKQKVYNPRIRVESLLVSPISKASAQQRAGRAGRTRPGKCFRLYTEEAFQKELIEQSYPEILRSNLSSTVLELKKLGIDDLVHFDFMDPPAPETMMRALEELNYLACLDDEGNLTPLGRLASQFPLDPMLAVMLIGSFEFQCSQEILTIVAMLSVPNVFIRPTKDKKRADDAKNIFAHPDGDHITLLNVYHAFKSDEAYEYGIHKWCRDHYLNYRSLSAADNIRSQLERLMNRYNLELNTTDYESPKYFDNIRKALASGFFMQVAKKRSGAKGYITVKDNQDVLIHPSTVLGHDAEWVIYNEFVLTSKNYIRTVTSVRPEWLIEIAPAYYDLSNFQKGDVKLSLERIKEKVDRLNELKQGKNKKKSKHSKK

B1: Strep-Ntr1(1–120) (domain or fragment, S. cerevisiae, UniProt Q06411 1-120, looked up)
chain: MEDSDSNTDKKFFFKKRRIDSYNYSDEEDNNSSMNSDMTYTNDALKTSSGNAPTISKLTKTYGIGAKLLSSMGYVAGKGLGKDGSGITTPIETQSRPMHNAGLGMFSNTNSSNYHSENED
Usually Kd stands for the equilibrium constant for the complex coming apart. B1 had a Kd of 1490 ± 50 nM.

B2: Ntr1(51–110) (domain or fragment, S. cerevisiae, UniProt Q06411 51-110, looked up)
chain: NAPTISKLTKTYGIGAKLLSSMGYVAGKGLGKDGSGITTPIETQSRPMHNAGLGMFSNTN
B2 showed a Kd of 2240 ± 110 nM.

These data come from article PMC3902948 (Nucleic Acids Research, 2013).
